Laboratory results as given in patent US20120316071A1 (published 2012).
Where a chain is given by its changes, count along the chain named. Names may count otherwise.

What was measured:
[1] = target: T1, Recombinant Human DLL4 (R&D Systems Cat#1506-D4/CF) (human, UniProt Q9NR61 27-524); test: SPR
T1 construct: bought recombinant protein; also called rHuman DLL4; delta-like protein 4

[2] = target: T1, Recombinant Human DLL4 (R&D Systems …); test: affinity quoted with the Multispot ECL titration; method of the number not stated there
[3] = target: T2, Recombinant Human DLL4 (R&D Systems Cat#1506-D4/CF) (human, UniProt Q9NR61 27-524); test: ECL multispot binding assay (MSD), antigen spotted on plate, 10 nM Fab
T2 construct: Bought recombinant protein; also called delta-like protein 4; rHuman DLL4

[4] = target: T3, rHuman ErbB2/Fc Chimera, CF (R&D Systems Cat#1129-ER) (human, UniProt P04626 23-652); test: as above
T3 construct: Bought recombinant protein; also called human epidermal growth factor 2 receptor; Fc part of the bought chimera not given

[5] = target: T4, rHuman EGF R/Fc Chimera, CF (R&D Systems Cat#344-ER) (human, UniProt P00533 25-645); test: as above
T4 construct: Bought recombinant protein; also called epidermal growth factor receptor; Fc part of the bought chimera not given

[6] = target: T5, rHuman HGF R/c-MET/Fc Chimera, CF (R&D Systems Cat#358-MT/CF) (human, UniProt P08581 25-932); test: as above
T5 construct: Bought recombinant protein; also called HGF R/Fc; hepatocyte growth factor receptor; Fc part of the bought chimera not given

[7] = target: T6, rHuman Notch-1/Fc Chimera, CF (R&D Systems Cat#3647-TK) (human, UniProt P46531 19-526); test: as above
T6 construct: Bought recombinant protein; Fc part of the bought chimera not given

[8] = target: T7, rHuman CD44/Fc Chimera, CF (R&D Systems Cat#3660-CD) (human, UniProt P16070 21-220); test: as above
T7 construct: Bought recombinant protein; Fc part of the bought chimera not given

[9] = target: T8, rHuman IGF-1 sR, CF (R&D Systems Cat#391-GR) (human, UniProt P08069 31-932); test: as above
T8 construct: also called insulin-like growth factor-1 soluble receptor

[10] = target: T9, rHuman P-Cadherin/Fc Chimera, CF (R&D Systems Cat#861-PC) (human, UniProt P22223 108-654); test: as above
T9 construct: Bought recombinant protein; Fc part of the bought chimera not given

[11] = target: T10, rHuman Erythropoietin R/Fc Chimera, CF (R&D Systems Cat#963-ER) (human, UniProt P19235 25-250); test: as above
T10 construct: Bought recombinant protein; also called EPO R; EPO R/Fc; Fc part of the bought chimera not given
T10 sequence (looked up): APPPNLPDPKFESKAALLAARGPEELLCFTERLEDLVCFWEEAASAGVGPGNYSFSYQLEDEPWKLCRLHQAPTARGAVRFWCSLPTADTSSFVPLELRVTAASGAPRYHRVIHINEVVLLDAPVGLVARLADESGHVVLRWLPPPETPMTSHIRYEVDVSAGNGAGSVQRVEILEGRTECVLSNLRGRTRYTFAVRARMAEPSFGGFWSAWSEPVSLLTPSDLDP

[12] = target: T11, Recombinant Human DLL4 (R&D Systems Cat#1506-D4/CF) (human, UniProt Q9NR61 27-524); test: ECL Multispot (MSD), DLL4 spotted, 10 nM Fab
T11 construct: Bought recombinant protein; also called delta-like protein 4; rHuman DLL4

[13] = target: T11, Recombinant Human DLL4 (R&D Systems …); test: ELISA, DLL4 coated, 100 nM Fab, absorbance at 450 nm minus noise
[14] = target: T12, rHuman HGF R/c-MET/Fc Chimera, CF (R&D Systems Cat#358-MT/CF) (human, UniProt P08581 25-932); test: ECL Multispot (MSD), antigen spotted, Fab 0.50 (column head 'Fab [µM]'); blank 206
T12 construct: Bought Fc chimera; also called HGF R/Fc; hepatocyte growth factor receptor; Fc part of the bought chimera not given

[15] = target: T13, rHuman IGF-1 sR, CF (R&D Systems Cat#391-GR) (human, UniProt P08069 31-932); test: as above
T13 construct: Bought soluble receptor; also called insulin-like growth factor-1 soluble receptor

[16] = target: T14, rHuman P-Cadherin/Fc Chimera, CF (R&D Systems Cat#861-PC) (human, UniProt P22223 108-654); test: as above
T14 construct: Bought Fc chimera; Fc part of the bought chimera not given

[17] = target: T11, Recombinant Human DLL4 (R&D Systems …); test: as above
[18] = target: T15, rHuman ErbB2/Fc Chimera, CF (R&D Systems Cat#1129-ER) (human, UniProt P04626 23-652); test: as above
T15 construct: Bought Fc chimera; also called human epidermal growth factor 2 receptor; Fc part of the bought chimera not given

[19] = target: T12, rHuman HGF R/c-MET/Fc Chimera, CF (R&D …); test: ECL Multispot (MSD), antigen spotted, Fab 5.00 (column head 'Fab [µM]'); blank 268
[20] = target: T13, rHuman IGF-1 sR, CF (R&D Systems …); test: as above
[21] = target: T14, rHuman P-Cadherin/Fc Chimera, CF (R&D …); test: as above
[22] = target: T11, Recombinant Human DLL4 (R&D Systems …); test: as above
[23] = target: T15, rHuman ErbB2/Fc Chimera, CF (R&D …); test: as above
[24] = target: T12, rHuman HGF R/c-MET/Fc Chimera, CF (R&D …); test: ECL Multispot (MSD), antigen spotted, Fab 50.00 (column head 'Fab [µM]'); blank 223
[25] = target: T13, rHuman IGF-1 sR, CF (R&D Systems …); test: as above
[26] = target: T14, rHuman P-Cadherin/Fc Chimera, CF (R&D …); test: as above
[27] = target: T11, Recombinant Human DLL4 (R&D Systems …); test: as above
[28] = target: T15, rHuman ErbB2/Fc Chimera, CF (R&D …); test: as above
[29] = target: T12, rHuman HGF R/c-MET/Fc Chimera, CF (R&D …); test: ECL Multispot (MSD), antigen spotted, Fab 500.00 (column head 'Fab [µM]'); blank 495
[30] = target: T13, rHuman IGF-1 sR, CF (R&D Systems …); test: as above
[31] = target: T14, rHuman P-Cadherin/Fc Chimera, CF (R&D …); test: as above
[32] = target: T11, Recombinant Human DLL4 (R&D Systems …); test: as above
[33] = target: T15, rHuman ErbB2/Fc Chimera, CF (R&D …); test: as above

B1: Fab VH1-46_IGHD6-6*01_IGHJ1*01 S102A/S103P/S104F/H111F & L6_IGKJ1*01 (Fab, V domains shown)
VH: QVQLVQSGAEVKKPGASVKVSCKASGYTFTSYYMHWVRQAPGQGLEWMGIINPSGGSTSYAQKFQGRVTMTRDTSTSTVYMELSSLRSEDTAVYYCAREEYAPFSAEYFQFWGQGTLVTVSS
VL: not shown
notes: Fab; also called H:APFF & L:wt; APFF mutant
- fold affinity against the parent Fab [1]: 10 fold
- apparent Kd (pooled screen) [2]: 70 nM

B2: Fab VH1-46_IGHD6-6*01_IGHJ1*01 S102A/S103P/S104F/H111F S59A & L6_IGKJ1*01 (Fab, V domains shown)
VH: B1 VH with S59A
VL: not shown
notes: Tested as a Fab made in E. coli; also called APFF S59A
- ECL signal [3]: 4500
- ECL signal [4]: 312
- ECL signal [5]: 358
- ECL signal [6]: 280
- ECL signal [7]: 333
- ECL signal [8]: 346
- ECL signal [9]: 273
- ECL signal [10]: 339
- ECL signal [11]: 382

B3: Fab VH1-46_IGHD6-6*01_IGHJ1*01 S102A/S103P/S104F/H111F (APFF) & L6_IGKJ1*01 (Fab, V domains shown)
VH: B1 VH
VL: not shown
notes: Tested as Fab expressed in E. coli: heavy chain from plasmid A (CH1 with His6 and Flag tags), kappa light chain from plasmid C (CL kappa); also called H:APFF & L:wt
- ECL Signal/Noise [12]: 202
- ELISA (Signal-Noise) [13]: 0.78
- ECL signal [14]: 215
- ECL signal [15]: 184
- ECL signal [16]: 201
- ECL signal [17]: 7540
- ECL signal [18]: 222
- ECL signal [19]: 258
- ECL signal [20]: 323
- ECL signal [21]: 280
- ECL signal [22]: 75800
- ECL signal [23]: 286
- ECL signal [24]: 380
- ECL signal [25]: 485
- ECL signal [26]: 453
- ECL signal [27]: 79300
- ECL signal [28]: 503
- ECL signal [29]: 723
- ECL signal [30]: 736
- ECL signal [31]: 785
- ECL signal [32]: 27200
- ECL signal [33]: 712
